doi:10.1101/2022.06.26.497646

Biological target: complex III dimer (CIII2, cytochrome bc1 complex) of Tetrahymena thermophila (Tetrahymena thermophila (endogenous))
Assay: cryo-EM structure

“complex III dimer (CIII2, cytochrome bc1 complex) of Tetrahymena thermophila” showed a stoichiometry N of 2.
